Measurements reported in publication PMC9696751.
Ends that are not written are not given here.

Biological target: nano-HER2-E3 (UniProt P04637)
Test: SEC; analytical chromatography on Superdex 200 Increase 5/150 GL; equimolar mixtures

B1: 647-C-K3 (peptide)
peptide: C(Alexa‑647 maleimide)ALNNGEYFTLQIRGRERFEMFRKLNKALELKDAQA
formation of the complexes (percent): < 95%
